The target of this test is RAS (endogenous RAS of human pancreatic PANC-1 cells and PANC-1 xenograft tumours, detected with a pan-RAS antibody). The test is described as follows: cell-based or functional assay.

“RRSP protein expressed in cells from rrsp mRNA delivered by PPDP2 nanoparticles (from UniProt A0A2S3R7M0 3596-4089) (enzyme)”: the cell proliferation measured by crystal violet staining, PANC-1 cells, 1.25 µg PPDP2-rrsp was greater than 60 % reduction and the total levels of intact RAS, western blot with pan-RAS antibody, PANC-1 cells treated with PPDP2-rrsp came to 40 % reduction.
